± gives the standard deviation.

The data set can be described thus: protein stability index of a GFP-peptide fusion (GPS, HEK-293T) (PSI 1-6); higher = more stable.
Where [1] appears, read: treatment: DMSO, c terminus: a fixed tail appended.
The mark [2] stands for this setting: treatment: MLN4924 1 uM, 8 h, c terminus: a fixed tail appended.
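Also: 24-mer peptide tiles fused after GFP, lentivirally expressed, FACS-sorted into six equal bins by GFP/DsRed ratio, decoded by Illumina sequencing, PSI is the read-weighted mean bin number.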

On to EEERDEEEDKRRKGEEVTPISAIR [EPB41L3], for which the protein stability index by setting is: under setting [1], 5.59 ± 0.28; under setting [2], 5.66 ± 0.21. As for EEPENGEPTAAATARRSKRERREE [PWWP2B], the protein stability index runs as follows: under setting [1], 5.63 ± 0.29; under setting [2], 5.8 ± 0.14. For EERALLLGRMGKHEQALFIYVHIL [VPS39], the protein stability index runs as follows: under setting [1], 2.96 ± 0.41; under setting [2], 2.68 ± 0.51. With EETVTMLEDVERELDGPKQIFFGR [ZNF396], the protein stability index turned out to be 4.5 ± 0.14 under setting [1] and 4.49 ± 0.26 under setting [2]. In the case of EEVSTLNAQIPELKSDLEKASALN [CD207], the protein stability index is, setting by setting: under setting [1], 5.08 ± 0.19; under setting [2], 5.24 ± 0.17. For the sequence EEYSQIIYSTKLYRFFKYIENRDV [BTBD10], the protein stability index under setting [1] is 1.64 ± 0.19 and the protein stability index under setting [2] was 1.87 ± 0.4. For EFDSPHEDIVFETDHILESLYRDI [STX11] the same measures were 3.59 ± 0.38 and 3.58 ± 0.25.

Take EFSIDNYPTDNTKVMIFKSSYSLS [MIA2]: the protein stability index worked out at 2.75 ± 0.64 under setting [1] and 2.48 ± 0.3 under setting [2].

In the case of EFVTLKAIALANSDSMHIEDVEAV [ESRRG], the protein stability index under setting [1] was 3.39 ± 0.38 and the protein stability index under setting [2] turned out to be 3.31 ± 0.29.

For EGHHHDVVACDFSPDGALLATASY [WSB1], the protein stability index turned out to be 3.9 ± 0.23 under setting [1] and 4.03 ± 0.18 under setting [2]. EGMDFHRFYFENLLAKNSKPIHTT [CAMK2B]: the protein stability index was found to be 2.52 ± 0.36 under setting [1] and 2.49 ± 0.31 under setting [2]. For EGPGEQETKLDLISKGEEPRAGKE [SLC29A1] the same measures were 5.68 ± 0.21 and 5.43 ± 0.21. Consider EGRKKAFSTCGSHLTVVAIFYGSG [OR3A1], for which the protein stability index stood at 2.77 ± 0.4 under setting [1] and 3.15 ± 0.38 under setting [2]. As for EGSSQEDEDLGLSEGSSQDSGED [SPANXN3], the protein stability index amounted to 5.55 ± 0.24 (treatment: DMSO, c terminus: native) and 5.56 ± 0.19 (treatment: MLN4924 1 uM, 8 h, c terminus: native). On to EGYAHLTHLLMGLASGRIILILEG [HDAC6], for which the protein stability index is, setting by setting: under setting [1], 2.91 ± 0.56; under setting [2], 3.09 ± 0.041.

With EGYTWRVAQLEDRRSTTDLRGTQF [ZSWIM9], the protein stability index worked out at 3.37 ± 0.55 under setting [1] and 3.28 ± 0.24 under setting [2]. As for EHDFLDRDAIEALCRRLNTLNKCA [DLC1], the protein stability index was determined as 2.73 ± 0.36 under setting [1] and 2.73 ± 0.49 under setting [2]. In the same order, the values of EIERAIKQTQCPADPLQLNKALSI [FEM1C] are 3.42 ± 0.44 and 3.28 ± 0.16.

Regarding EKGILTTEKQNFLLFDMTTHPVTN [GOLPH3L], the protein stability index was found to be 3.69 ± 0.32 under setting [1] and 3.61 ± 0.27 under setting [2].

Regarding EKKLFECLTCGKSFRQGMHLTRHQ [ZNF263], the protein stability index is, setting by setting: under setting [1], 2.1 ± 0.41; under setting [2], 2.27 ± 0.19.

For EKTFWKEEKSFWEMEKSFREEEKT [CCDC70], the protein stability index runs as follows: under setting [1], 4.62 ± 0.23; under setting [2], 4.82 ± 0.26.

EKYGAVREVILKELAEATWCGIST [ZBED1]: the protein stability index turned out to be 2.97 ± 0.36 under setting [1] and 2.68 ± 0.35 under setting [2]. With ELMKCQIIYPRQQLLTLRELEMIG [TRIP13], the protein stability index under setting [1] was found to be 2.33 ± 0.47 and the protein stability index under setting [2] worked out at 2.02 ± 0.53. ELNKKMTNIRLPNVPSSSLPAQPN [CHMP4C]: the protein stability index was determined as 3.66 ± 0.4 under setting [1] and 3.63 ± 0.18 under setting [2].

As to ELNKQVVSSSEQLQSYQAEIIELR [KRT33B], the protein stability index stood at 3.76 ± 0.3 under setting [1] and 3.99 ± 0.34 under setting [2].

ELRPRRGRCGPQAARAAGRDVAAE [POMT2]: the protein stability index reads like this: under setting [1], 3.58 ± 0.37; under setting [2], 3.67 ± 0.086. In the same order, the values of ELVSVEDLLKFEKKFQSEKAAGSV [FIS1] are 3.58 ± 0.3 and 4.07 ± 0.35. For the sequence EMEVMRRQLYAVNRRLRALEEQGA [FATE1], the protein stability index came to 3.65 ± 0.29 under setting [1] and 3.68 ± 0.41 under setting [2].

For the sequence ENHSMYCVQCKMPVCYQCLEEGKH [TRIM9], the protein stability index under setting [1] was found to be 4.07 ± 0.2 and the protein stability index under setting [2] was 4.36 ± 0.41. In the same order, the values of EPSSPASLTDSVNHHSPGGSSDAS [ESRRG] are 5.47 ± 0.15 and 5.51 ± 0.15. For EQLLDVKLALDMEISAYRKLLQGE [LMNB1] the same measures were 3.02 ± 0.45 and 3.13 ± 0.55. Turning to ERCLSCILAQQPDRLRDEELAELE [TRADD], the protein stability index under setting [1] worked out at 4.41 ± 0.39 and the protein stability index under setting [2] was 4.19 ± 0.51.

For the sequence ERPERRSGPPASYCAKLCEPQWFY [C8orf76], the protein stability index is, setting by setting: under setting [1], 2.46 ± 0.26; under setting [2], 2.54 ± 0.32. As for ERYMCSRFFIDFPHIEEQQKKIES [TENT5D], the protein stability index was found to be 3.21 ± 0.3 under setting [1] and 3.23 ± 0.16 under setting [2]. As to ESGKSTIVKQMKIIHEAGYSEEEC [GNAI1], the protein stability index by setting is: under setting [1], 5.16 ± 0.18; under setting [2], 4.85 ± 0.13. Take ESILMSLPLTARWEYMHSPSENSK [CPOX]: the protein stability index under setting [1] was found to be 3.45 ± 0.57 and the protein stability index under setting [2] amounted to 3.93 ± 0.33.

The sequence ESLRPLVQTPPGGSEVVPVISPMY [IKZF1] yielded a protein stability index under setting [2] of 3.72 ± 0.71. For the sequence ETALYRKMLGNPSRLPAKCPGKGA [FKBP8], the protein stability index turned out to be 3.61 ± 0.31 under setting [1] and 3.62 ± 0.3 under setting [2]. As to ETDVWFSKQRKDFEGMAFLETEQG [GMCL1], the protein stability index was determined as 4.12 ± 0.62 under setting [1] and 4.45 ± 0.16 under setting [2]. For ETLSGDRVRLDSELRNVQDVVEDY [KRT71], the protein stability index worked out at 5.16 ± 0.19 under setting [1] and 5.36 ± 0.18 under setting [2].

In the case of ETYMSADDLRINLWHLAITDRSFN [PPP2R2C], the protein stability index is, setting by setting: under setting [1], 2.23 ± 0.32; under setting [2], 2.36 ± 0.29. Take EVLLASLANPVLESTPVGTVVGLF [PCDHGC5]: the protein stability index runs as follows: under setting [1], 2.53 ± 0.51; under setting [2], 2.33 ± 0.43. EVNVLNDMRDTPLHRAAFTGRKIC [OSBPL1A]: the protein stability index reads like this: under setting [1], 3.19 ± 0.089; under setting [2], 3.26 ± 0.31. Turning to EVSHPFLIRLFWTWHDERFLYMLM [PRKX], the protein stability index reads like this: under setting [1], 2.24 ± 0.55; under setting [2], 2.14 ± 0.19. For the sequence FARFCKSQESALGNTVPAVEPGTP [DNAAF3], the protein stability index amounted to 3.63 ± 0.25 under setting [1] and 3.58 ± 0.21 under setting [2]. With FDFERSGLQHAPEPDAADGPYDPN [SMAD6], the protein stability index under setting [1] was 5.37 ± 0.29 and the protein stability index under setting [2] was 5.5 ± 0.41.

On to FDVHPPLGKMLIGLAGYLSGYDGT [POMT2], for which the protein stability index by setting is: under setting [1], 2.18 ± 0.19; under setting [2], 2.17 ± 0.13.

For FETQMKTLAQFPETLLGDPEKRTQ [KCNA4], the protein stability index came to 4.79 ± 0.16 under setting [1] and 4.84 ± 0.21 under setting [2]. For FFHCYCPVGFGRRTDPNGDYIRRY [CRY1] the same measures were 2.4 ± 0.048 and 2.34 ± 0.42.

For FFLKHPDKDVRLLVACCLADIFRI [PDS5B], the protein stability index under setting [1] turned out to be 2.95 ± 0.81 and the protein stability index under setting [2] was determined as 2.75 ± 0.17. In the same order, the values of FFTVEFGLCKQDGQLRVFGAGLLS [TPH1] are 2.73 ± 0.57 and 3.09 ± 1.2. For FGFAQILIPGDAYTDYVATRWYRA [CDKL4] the same measures were 2.31 ± 0.58 and 2.84 ± 0.76. As for FGLAIEVEGEQQAWFGFAGTPGYL [CAMK2A], the protein stability index under setting [1] stood at 2.68 ± 0.92 and the protein stability index under setting [2] is 2.92 ± 0.65. In the same order, the values of FIDKEDLKDTYASLGKTNVKDDEL [MYL5] are 4.8 ± 0.15 and 4.92 ± 0.19.

For the sequence FIMDSCDELIPEYLNFIRGVVDSE [HSP90AB1], the protein stability index under setting [1] turned out to be 2.37 ± 0.13 and the protein stability index under setting [2] was found to be 2.32 ± 0.32.

For FKSFQYPLPWSECPVVRNGSVAVV [SLC6A17], the protein stability index under setting [1] turned out to be 2.07 ± 0.29 and the protein stability index under setting [2] amounted to 2.09 ± 0.56. For FLKKSQLTEHKRIHTGKKPHVCSL [ZNF649] the same measures were 2.76 ± 0.36 and 2.75 ± 0.36. In the same order, the values of FLLKFLLVGDSDVGKGEILASLQD [RAB40B] are 3.52 ± 0.49 and 1.86 ± 0.28.

Consider FLQVLEPGARGLWKPPDIKGKLMV [SPAG8], for which the protein stability index was 2.38 ± 0.34 under setting [1] and 2.26 ± 0.32 under setting [2]. For FLQYYYQSGCLYRLRALGERHTMD [TMEM120A], the protein stability index runs as follows: under setting [1], 2.46 ± 0.47; under setting [2], 2.35 ± 0.38. For FLSLACARGSIVATYIFIFIGETL [SPNS1] the same measures were 2.72 ± 0.2 and 2.92 ± 0.71. For the sequence FMPAMQFSIPPWRYDAEVVAIAQK [MYORG], the protein stability index came out at 2.33 ± 0.22 under setting [1] and 2.52 ± 0.18 under setting [2]. For FPAVTVEVKSSIAGSSTWERYFIP [SLC29A1] the same measures were 2.61 ± 0.88 and 2.4 ± 0.28.

Regarding FPRDAVQIEEVFISEEIQMSTKES [MIA2], the protein stability index is, setting by setting: under setting [1], 4.56 ± 0.17; under setting [2], 4.5 ± 0.2. For FQMVLEGGVCCTVTLNFNVPGEFK [GFOD1] the same measures were 3.1 ± 0.41 and 3.14 ± 0.31.

On to FRKDSVLNILIQSLDWETFEQYCA [INTS3], for which the protein stability index reads like this: under setting [1], 2.51 ± 0.61; under setting [2], 2.04 ± 0.18. In the same order, the values of FRPKDQTSVGMSFVAGGISGTVAA [SLC25A39] are 3 ± 0.11 and 2.96 ± 0.29. For FSGSLVAALSATGPRFLAYFGSFA [TMEM175] the same measures were 2.91 ± 0.11 and 2.61 ± 0.37. As for FSIPPTNHEIMPGGSVNITCVAVG [PTPRD], the protein stability index worked out at 2.22 ± 0.17 under setting [1] and 2.06 ± 0.14 under setting [2]. Consider FTLNPDKKTCRRINYCALNKPGCE [MATN2], for which the protein stability index by setting is: under setting [1], 2.64 ± 0.64; under setting [2], 2.96 ± 0.45. With FVATFLRYAVVLNATWLVNSAAHL [SCD], the protein stability index stood at 3.31 ± 0.7 under setting [1] and 2.97 ± 0.33 under setting [2].

For FVSIAQSEQESLLQQAQAQFRMAQ [SMG5], the protein stability index came to 2.68 ± 0.31 under setting [1] and 3.08 ± 0.47 under setting [2].

Source of the values: the supplement of paper PMC10567573.
